Reference: patent US10239925B2, “Peptides and combination of peptides for use in immunotherapy against ovarian cancer and other cancers” (IMMATICS BIOTECHNOLOGIES GMBH, priority 2015, dated 2019)

Molecular target: HLA-A*02:01 (Homo sapiens, UniProt P04439, D140Y/D185E/D98H/E176V/E277Q/G131W/G231S/I119V/I121R/I166T/I218V/L300P/L318F/N151K/N90K/P208A/P217A/Q86G/Q94H/R138H/R169H/T345S)
Test: MHC binding assay (UV-ligand exchange, anti-β2m ELISA, peptide exchange yield)
Details: binding to HLA-A*02:01
Procedure, shortened: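 Peptide-MHC complexes formed by UV-ligand exchange, cleaving a UV-sensitive placeholder peptide in favour of the test peptide. Exchange yield measured by ELISA: monomers diluted 100-fold onto streptavidin-coated plates, 1 h 37 °C, detected with 2 ug/ml HRP anti-β2m and TMB, absorbance at 450 nm.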

Substance	Peptide exchange (MHC class I binding score, peptide exchange yield)
173 (LLDSASAGLYL; listed as Homo sapiens) [compound 173]	“+++” (>50 = +++)
174 (ALAQYLITA; listed as Homo sapiens) [compound 174]	“+++” (>50 = +++)
175 (YLFENISQL; listed as Homo sapiens) [compound 175]	“+++” (>50 = +++)
176 (YLMEGSYNKVFL; listed as Homo sapiens) [compound 176]	“++” (>20% = ++)
177 (YLLPEEYTSTL; listed as Homo sapiens) [compound 177]	“++++” (>75% = ++++)
178 (ALTEIAFVV; listed as Homo sapiens) [compound 178]	“++++” (>75% = ++++)
179 (KVLNELYTV; listed as Homo sapiens) [compound 179]	“+++” (>50 = +++)
180 (FQIDPHSGLVTV; listed as Homo sapiens) [compound 180]	“++” (>20% = ++)
181 (LLWAGTAFQV; listed as Homo sapiens) [compound 181]	“+++” (>50 = +++)
182 (MLLEAPGIFL; listed as Homo sapiens) [compound 182]	“+++” (>50 = +++)
183 (FGLDLVTEL; listed as Homo sapiens) [compound 183]	“+++” (>50 = +++)
184 (YLMDINGKMWL; listed as Homo sapiens) [compound 184]	“+++” (>50 = +++)
185 (FLIDDKGYTL; listed as Homo sapiens) [compound 185]	“++” (>20% = ++)
186 (TLFFQQNAL; listed as Homo sapiens) [compound 186]	“++” (>20% = ++)
187 (RQISIRGIVGV; listed as Homo sapiens) [compound 187]	“+++” (>50 = +++)
188 (GLFPVTPEAV; listed as Homo sapiens) [compound 188]	“+++” (>50 = +++)
189 (ALQRKLPYV; listed as Homo sapiens) [compound 189]	“+++” (>50 = +++)
190 (FLSSLTETI; listed as Homo sapiens) [compound 190]	“+++” (>50 = +++)
192 (KMLDGASFTL; listed as Homo sapiens) [compound 192]	“+++” (>50 = +++)
193 (QLLDADGFLNV; listed as Homo sapiens) [compound 193]	“+++” (>50 = +++)
194 (ALPLFVITV; listed as Homo sapiens) [compound 194]	“+++” (>50 = +++)
195 (GLFADLLPRL; listed as Homo sapiens) [compound 195]	“+++” (>50 = +++)
196 (YLYSVEIKL; listed as Homo sapiens) [compound 196]	“++++” (>75% = ++++)
197 (ALGPEGGRV; listed as Homo sapiens) [compound 197]	“++” (>20% = ++)

Now from value to substance:

Peptide exchange (MHC class I binding score, peptide exchange yield)	Substance
“+++” (>50 = +++)	200 (LLFGSVQEV; listed as Homo sapiens) [compound 200]
“+++” (>50 = +++)	201 (RLVDYLEGI; listed as Homo sapiens) [compound 201]
“+++” (>50 = +++)	202 (ALLDQQGSRWTL; listed as Homo sapiens) [compound 202]
“++” (>20% = ++)	204 (KIAENVEEV; listed as Homo sapiens) [compound 204]
“+++” (>50 = +++)	205 (SLYPGTETMGL; listed as Homo sapiens) [compound 205]
“+++” (>50 = +++)	206 (VLQEGKLQKLAQL; listed as Homo sapiens) [compound 206]
“++” (>20% = ++)	207 (GLTSTNAEV; listed as Homo sapiens) [compound 207]
“+++” (>50 = +++)	208 (KISPVTFSV; listed as Homo sapiens) [compound 208]
“++” (>20% = ++)	209 (KLIESKHEV; listed as Homo sapiens) [compound 209]
“++” (>20% = ++)	210 (LLLNAVLTV; listed as Homo sapiens) [compound 210]
“++” (>20% = ++)	211 (LLWPGAALL; listed as Homo sapiens) [compound 211]
“++” (>20% = ++)	212 (ALWDQDNLSV; listed as Homo sapiens) [compound 212]
“+++” (>50 = +++)	214 (FLLDLDPLLL; listed as Homo sapiens) [compound 214]
“+++” (>50 = +++)	216 (NLWEDPYYL; listed as Homo sapiens) [compound 216]
“++” (>20% = ++)	217 (ALIHPVSTV; listed as Homo sapiens) [compound 217]
“++” (>20% = ++)	218 (SALEELVNV; listed as Homo sapiens) [compound 218]
“+++” (>50 = +++)	219 (KLSDIGITV; listed as Homo sapiens) [compound 219]
“++” (>20% = ++)	220 (LLQKFVPEI; listed as Homo sapiens) [compound 220]
“++” (>20% = ++)	221 (ALYEEGLLL; listed as Homo sapiens) [compound 221]
“++” (>20% = ++)	222 (NLIENVQRL; listed as Homo sapiens) [compound 222]
“+++” (>50 = +++)	223 (ALLENIALYL; listed as Homo sapiens) [compound 223]
“+++” (>50 = +++)	224 (TLIDAQWVL; listed as Homo sapiens) [compound 224]
“+++” (>50 = +++)	225 (SLLKVLPAL; listed as Homo sapiens) [compound 225]
“++” (>20% = ++)	226 (MLYVVPIYL; listed as Homo sapiens) [compound 226]
“++” (>20% = ++)	227 (ALMNTLLYL; listed as Homo sapiens) [compound 227]
“++” (>20% = ++)	228 (AMQEYIAVV; listed as Homo sapiens) [compound 228]
